Test results: patent US20150258192A1, “COMPOSITIONS AND METHODS FOR PREVENTING OR TREATING CHRONIC LUNG ALLOGRAFT DYSFUNCTION (CLAD) AND IDIOPATHIC PULMONARY FIBROSIS (IPF)” (priority 2014, published 2015)
No end group written: not given here.

Assays:
Test in all cases: Kinase Profiling Assay
Format in all cases: biochemical
Conditions in all cases: peptide 100 μM
CHK2(h) = CHK2(h) (Homo sapiens, UniProt O96017)
Outline: (§1)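 Measured twice per kinase, activity in presence of MK2 inhibitory peptide was calculated against a 100% activity control after radiometric phosphorylation of a cationic substrate, anionic filter capture and scintillation counting; one of 266 human kinases profiled for specificity.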

FGFR1(V561M)(h) = FGFR1(V561M)(h) (Homo sapiens, UniProt P11362, V561M)
Chain of FGFR1(V561M)(h) (P11362 22-822 V561M): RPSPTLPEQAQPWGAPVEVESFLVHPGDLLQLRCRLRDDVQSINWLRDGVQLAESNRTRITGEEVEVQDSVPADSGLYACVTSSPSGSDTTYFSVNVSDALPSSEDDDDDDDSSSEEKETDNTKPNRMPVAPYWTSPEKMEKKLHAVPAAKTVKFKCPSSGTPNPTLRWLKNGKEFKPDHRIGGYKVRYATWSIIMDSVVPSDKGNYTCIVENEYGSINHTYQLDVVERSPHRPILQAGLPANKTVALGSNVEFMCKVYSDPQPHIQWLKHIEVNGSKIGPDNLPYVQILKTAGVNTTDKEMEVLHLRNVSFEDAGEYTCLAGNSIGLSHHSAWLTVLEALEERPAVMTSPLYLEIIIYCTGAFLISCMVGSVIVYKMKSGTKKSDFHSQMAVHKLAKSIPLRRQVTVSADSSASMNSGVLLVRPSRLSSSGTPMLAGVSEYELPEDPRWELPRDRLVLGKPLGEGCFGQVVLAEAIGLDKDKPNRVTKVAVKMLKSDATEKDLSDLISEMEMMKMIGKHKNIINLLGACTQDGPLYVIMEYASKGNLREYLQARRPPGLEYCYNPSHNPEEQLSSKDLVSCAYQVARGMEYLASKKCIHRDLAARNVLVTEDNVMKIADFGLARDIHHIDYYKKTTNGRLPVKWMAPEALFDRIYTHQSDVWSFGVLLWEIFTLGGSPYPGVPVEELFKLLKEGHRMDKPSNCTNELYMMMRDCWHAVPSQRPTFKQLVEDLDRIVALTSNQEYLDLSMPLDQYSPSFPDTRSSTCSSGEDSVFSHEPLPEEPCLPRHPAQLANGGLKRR
Outline: as §1

FGFR4(h) = FGFR4(h) (Homo sapiens, UniProt P22455)
Outline: as §1

Lyn(h) = target: T1, Lyn(h) (Homo sapiens, UniProt P07948)
T1 construct: purchased Millipore
T1 sequence (P07948 whole entry): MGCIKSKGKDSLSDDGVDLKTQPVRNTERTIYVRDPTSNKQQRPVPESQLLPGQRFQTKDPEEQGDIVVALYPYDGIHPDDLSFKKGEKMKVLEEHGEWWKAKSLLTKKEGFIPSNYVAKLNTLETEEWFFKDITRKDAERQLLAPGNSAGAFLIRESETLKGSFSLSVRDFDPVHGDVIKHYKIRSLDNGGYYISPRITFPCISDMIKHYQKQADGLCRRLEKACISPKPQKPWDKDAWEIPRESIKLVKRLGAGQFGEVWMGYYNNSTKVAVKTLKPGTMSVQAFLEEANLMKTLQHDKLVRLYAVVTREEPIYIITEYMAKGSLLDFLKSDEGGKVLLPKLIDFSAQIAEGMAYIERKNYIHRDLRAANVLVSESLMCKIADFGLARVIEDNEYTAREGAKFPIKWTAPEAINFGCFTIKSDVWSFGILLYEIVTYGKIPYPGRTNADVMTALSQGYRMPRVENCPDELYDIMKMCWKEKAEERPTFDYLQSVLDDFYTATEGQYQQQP
Outline: as §1

MAPKAP-K2(h) = target: T2, MAPKAP-K2(h) (Homo sapiens, UniProt P49137)
T2 construct: purchased Millipore
T2 sequence (P49137 whole entry): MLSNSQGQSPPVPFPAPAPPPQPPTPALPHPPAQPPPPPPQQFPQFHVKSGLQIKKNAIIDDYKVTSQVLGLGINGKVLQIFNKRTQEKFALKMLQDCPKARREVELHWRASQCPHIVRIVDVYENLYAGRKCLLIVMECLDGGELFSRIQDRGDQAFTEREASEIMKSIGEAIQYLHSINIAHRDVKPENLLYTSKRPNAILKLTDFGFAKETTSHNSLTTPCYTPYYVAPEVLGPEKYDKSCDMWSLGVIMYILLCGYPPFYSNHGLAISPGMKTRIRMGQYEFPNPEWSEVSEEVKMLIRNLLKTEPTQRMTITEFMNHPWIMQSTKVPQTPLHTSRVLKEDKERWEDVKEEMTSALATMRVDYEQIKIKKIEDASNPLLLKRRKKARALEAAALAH
Outline: as §1

MINK(h) = target: T3, MINK(h) (Homo sapiens, UniProt Q8N4C8)
T3 construct: purchased Millipore
T3 sequence (Q8N4C8 whole entry): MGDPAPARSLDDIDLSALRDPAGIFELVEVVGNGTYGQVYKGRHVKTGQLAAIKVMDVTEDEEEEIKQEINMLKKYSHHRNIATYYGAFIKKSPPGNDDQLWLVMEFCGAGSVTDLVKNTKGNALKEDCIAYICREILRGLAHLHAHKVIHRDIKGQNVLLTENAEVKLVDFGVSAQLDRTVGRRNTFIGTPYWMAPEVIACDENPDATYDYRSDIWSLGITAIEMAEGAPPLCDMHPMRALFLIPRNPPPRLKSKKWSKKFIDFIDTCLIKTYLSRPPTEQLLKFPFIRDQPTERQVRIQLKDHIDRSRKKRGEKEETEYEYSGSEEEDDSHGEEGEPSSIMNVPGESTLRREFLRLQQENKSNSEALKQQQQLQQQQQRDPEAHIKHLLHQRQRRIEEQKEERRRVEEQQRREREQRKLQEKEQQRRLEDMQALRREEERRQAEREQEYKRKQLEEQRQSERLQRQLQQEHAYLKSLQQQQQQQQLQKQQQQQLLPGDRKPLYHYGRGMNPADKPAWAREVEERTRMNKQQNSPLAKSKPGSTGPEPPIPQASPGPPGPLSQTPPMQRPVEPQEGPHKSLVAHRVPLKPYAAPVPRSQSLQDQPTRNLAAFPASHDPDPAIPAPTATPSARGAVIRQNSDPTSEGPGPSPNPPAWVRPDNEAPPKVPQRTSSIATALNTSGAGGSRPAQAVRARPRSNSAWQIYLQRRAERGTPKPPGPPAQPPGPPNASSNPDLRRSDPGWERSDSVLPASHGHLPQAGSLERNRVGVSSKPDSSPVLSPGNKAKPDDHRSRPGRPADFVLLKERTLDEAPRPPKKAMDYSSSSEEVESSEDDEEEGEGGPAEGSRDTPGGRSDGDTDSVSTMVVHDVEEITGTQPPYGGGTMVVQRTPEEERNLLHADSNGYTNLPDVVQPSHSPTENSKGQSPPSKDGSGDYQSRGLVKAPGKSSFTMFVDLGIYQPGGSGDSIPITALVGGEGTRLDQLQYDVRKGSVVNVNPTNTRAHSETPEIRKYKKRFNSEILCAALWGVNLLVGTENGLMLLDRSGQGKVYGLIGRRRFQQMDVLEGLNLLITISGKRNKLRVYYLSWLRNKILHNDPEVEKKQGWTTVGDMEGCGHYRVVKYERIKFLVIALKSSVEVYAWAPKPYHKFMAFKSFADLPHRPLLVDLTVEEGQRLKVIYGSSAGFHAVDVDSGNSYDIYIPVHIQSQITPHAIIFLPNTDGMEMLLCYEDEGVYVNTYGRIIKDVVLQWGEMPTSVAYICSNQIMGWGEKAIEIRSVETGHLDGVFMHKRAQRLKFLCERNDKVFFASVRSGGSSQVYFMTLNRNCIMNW
Outline: as §1

MST2(h) = target: T4, MST2(h) (Homo sapiens, UniProt Q13188)
T4 construct: purchased Millipore
T4 sequence (Q13188 1-491): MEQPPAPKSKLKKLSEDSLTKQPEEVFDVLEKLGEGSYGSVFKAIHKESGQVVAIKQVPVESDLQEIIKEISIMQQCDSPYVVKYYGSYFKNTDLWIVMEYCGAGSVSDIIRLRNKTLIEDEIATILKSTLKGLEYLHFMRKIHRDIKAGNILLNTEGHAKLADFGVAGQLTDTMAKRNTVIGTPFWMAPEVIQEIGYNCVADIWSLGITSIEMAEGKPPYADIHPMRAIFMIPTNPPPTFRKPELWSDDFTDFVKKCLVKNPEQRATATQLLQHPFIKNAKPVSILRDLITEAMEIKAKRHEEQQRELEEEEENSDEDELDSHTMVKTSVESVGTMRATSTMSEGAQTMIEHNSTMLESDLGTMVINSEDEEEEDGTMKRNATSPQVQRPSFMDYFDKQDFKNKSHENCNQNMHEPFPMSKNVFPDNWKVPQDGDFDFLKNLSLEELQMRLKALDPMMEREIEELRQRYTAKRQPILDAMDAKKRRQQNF
Outline: as §1

MST3(h) = target: T5, MST3(h) (Homo sapiens, UniProt Q9Y6E0)
T5 construct: purchased Millipore
T5 sequence (Q9Y6E0 whole entry): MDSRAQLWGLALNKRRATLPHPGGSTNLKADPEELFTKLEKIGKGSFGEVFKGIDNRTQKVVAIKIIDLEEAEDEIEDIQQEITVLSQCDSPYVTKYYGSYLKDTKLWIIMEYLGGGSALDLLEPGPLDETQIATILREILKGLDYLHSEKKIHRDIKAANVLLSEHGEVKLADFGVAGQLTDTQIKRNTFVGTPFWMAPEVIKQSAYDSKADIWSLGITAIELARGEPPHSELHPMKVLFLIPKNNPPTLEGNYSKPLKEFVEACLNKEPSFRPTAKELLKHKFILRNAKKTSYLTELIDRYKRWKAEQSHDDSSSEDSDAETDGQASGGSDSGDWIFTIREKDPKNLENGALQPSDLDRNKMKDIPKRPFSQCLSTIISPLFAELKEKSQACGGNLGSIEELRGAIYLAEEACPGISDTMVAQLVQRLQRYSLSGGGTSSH
Outline: as §1

Met(h) = target: T6, Met(h) (Homo sapiens, UniProt P08581)
T6 construct: purchased Millipore
Outline: as §1

NLK(h) = target: T7, NLK(h) (Homo sapiens, UniProt Q9UBE8)
T7 construct: purchased Millipore
T7 sequence (Q9UBE8 1-527): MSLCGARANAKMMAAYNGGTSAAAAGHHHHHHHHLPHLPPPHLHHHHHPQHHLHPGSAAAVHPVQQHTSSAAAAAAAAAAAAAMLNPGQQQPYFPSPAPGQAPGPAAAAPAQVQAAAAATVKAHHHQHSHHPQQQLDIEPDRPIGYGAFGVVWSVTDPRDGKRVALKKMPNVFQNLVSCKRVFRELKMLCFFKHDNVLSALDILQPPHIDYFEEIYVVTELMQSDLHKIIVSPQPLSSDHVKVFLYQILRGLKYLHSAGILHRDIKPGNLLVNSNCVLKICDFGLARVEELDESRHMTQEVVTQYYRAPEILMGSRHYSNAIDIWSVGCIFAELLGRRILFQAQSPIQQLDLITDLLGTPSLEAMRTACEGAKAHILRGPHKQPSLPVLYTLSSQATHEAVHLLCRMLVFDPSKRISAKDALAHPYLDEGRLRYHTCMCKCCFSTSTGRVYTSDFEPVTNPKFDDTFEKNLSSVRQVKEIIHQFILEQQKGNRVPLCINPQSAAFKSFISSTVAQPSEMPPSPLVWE
Outline: as §1

PKCα(h) = PKCα(h) (Homo sapiens, UniProt P17252)
Outline: as §1

PKCβII(h) = PKCβII(h) (Homo sapiens, UniProt P05771)
Chain of PKCβII(h) (P05771 1-673 isoform P05771-2): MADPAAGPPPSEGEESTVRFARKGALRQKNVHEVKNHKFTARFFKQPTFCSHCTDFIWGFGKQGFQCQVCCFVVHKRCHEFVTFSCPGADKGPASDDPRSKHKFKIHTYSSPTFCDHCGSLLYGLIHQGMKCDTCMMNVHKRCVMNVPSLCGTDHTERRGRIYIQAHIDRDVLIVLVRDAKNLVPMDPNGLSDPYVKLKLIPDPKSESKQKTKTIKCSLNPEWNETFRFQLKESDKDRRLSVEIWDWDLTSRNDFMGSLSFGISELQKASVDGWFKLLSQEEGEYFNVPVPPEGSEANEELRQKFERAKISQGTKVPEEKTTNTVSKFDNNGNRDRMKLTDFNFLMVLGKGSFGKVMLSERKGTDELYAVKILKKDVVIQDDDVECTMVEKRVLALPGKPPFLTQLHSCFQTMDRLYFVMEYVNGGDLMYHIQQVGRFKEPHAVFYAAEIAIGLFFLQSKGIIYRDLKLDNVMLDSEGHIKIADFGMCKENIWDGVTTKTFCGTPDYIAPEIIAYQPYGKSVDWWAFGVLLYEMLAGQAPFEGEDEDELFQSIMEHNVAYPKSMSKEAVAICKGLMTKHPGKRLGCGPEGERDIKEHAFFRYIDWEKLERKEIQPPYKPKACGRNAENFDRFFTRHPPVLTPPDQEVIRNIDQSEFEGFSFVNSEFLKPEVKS
Outline: as §1

Ret(V804L)(h) = Ret(V804L)(h) (Homo sapiens, UniProt P07949, V804L)
Outline: as §1

SAPK2a(h) = target: T8, SAPK2a(h) (Homo sapiens, UniProt Q16539)
T8 construct: purchased Millipore
Outline: as §1

ULK3(h) = target: T9, ULK3(h) (Homo sapiens, UniProt Q6PHR2)
T9 sequence (Q6PHR2 1-472): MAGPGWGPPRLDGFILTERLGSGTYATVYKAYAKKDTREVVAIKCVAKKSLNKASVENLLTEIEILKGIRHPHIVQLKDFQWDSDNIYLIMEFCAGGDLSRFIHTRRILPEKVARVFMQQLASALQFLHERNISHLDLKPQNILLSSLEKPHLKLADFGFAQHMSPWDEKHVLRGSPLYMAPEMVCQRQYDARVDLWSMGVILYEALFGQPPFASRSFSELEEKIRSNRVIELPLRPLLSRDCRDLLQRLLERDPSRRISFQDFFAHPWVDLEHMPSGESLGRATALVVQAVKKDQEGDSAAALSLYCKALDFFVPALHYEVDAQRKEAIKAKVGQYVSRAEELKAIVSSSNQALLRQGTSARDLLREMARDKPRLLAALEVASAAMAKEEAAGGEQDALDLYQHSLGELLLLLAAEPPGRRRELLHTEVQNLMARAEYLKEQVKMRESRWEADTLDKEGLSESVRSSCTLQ
Outline: as §1

cKit(h) = cKit(h) (Homo sapiens, UniProt P10721)
Outline: as §1

Chain of CHK2(h) (O96017 whole entry): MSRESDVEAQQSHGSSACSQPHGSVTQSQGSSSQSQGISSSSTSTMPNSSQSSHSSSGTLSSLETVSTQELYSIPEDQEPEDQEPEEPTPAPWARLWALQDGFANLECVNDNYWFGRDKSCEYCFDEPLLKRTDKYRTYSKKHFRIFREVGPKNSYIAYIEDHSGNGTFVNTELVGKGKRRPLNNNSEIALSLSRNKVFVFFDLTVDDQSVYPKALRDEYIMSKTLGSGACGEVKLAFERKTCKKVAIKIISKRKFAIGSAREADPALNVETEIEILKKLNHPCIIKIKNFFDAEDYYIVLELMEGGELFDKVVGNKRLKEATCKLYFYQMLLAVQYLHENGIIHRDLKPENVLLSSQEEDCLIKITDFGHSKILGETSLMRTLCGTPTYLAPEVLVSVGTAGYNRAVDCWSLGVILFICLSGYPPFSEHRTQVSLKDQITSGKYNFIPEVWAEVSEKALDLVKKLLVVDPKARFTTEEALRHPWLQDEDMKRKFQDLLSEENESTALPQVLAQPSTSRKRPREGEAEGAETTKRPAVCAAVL

Sequence | % activity (CHK2(h)) | % activity (FGFR1(V561M)(h)) | % activity (FGFR4(h)) | % activity (Lyn(h)) | % activity (MAPKAP-K2(h)) | % activity (MINK(h)) | % activity (MST2(h)) | % activity (MST3(h)) | % activity (Met(h)) | % activity (NLK(h)) | % activity (PKCα(h)) | % activity (PKCβII(h)) | % activity (Ret(V804L)(h)) | % activity (SAPK2a(h)) | % activity (ULK3(h)) | % activity (cKit(h))
FAKLAARLYRKALARQLGVAA [MMI-0300] | 66% | 74% | 28% | 69% | 5% | 48% | 19% | 45% | 65% | 87% | 89% | 82% | 79% | 90% | 167% | 53%
HRRIKAWLKKIKALARQLGVAA (Mammal) [MMI-0500] | 13% | – | 3% | 31% | 9% | 5% | 2% | 4% | 27% | 19% | 3% | 3% | 20% | 52% | 177% | 45%
KAFAKLAARLYRKALARQLGVAA [MMI-0400] | 54% | 74% | 19% | 3% | 5% | 52% | 11% | 36% | 62% | 90% | 86% | 75% | 73% | 85% | 147% | 43%
YARAAARQARAKALARQLGVAA [MMI-0100] | – | 108% | – | – | 19% | 96% | 98% | – | – | 100% | – | – | – | – | 142% | 95%
YARAAARQARAKALNRQLGVA (Mammal) [MMI-0200] | – | 72% | 75% | 98% | 35% | – | – | 95% | 71% | – | 100% | 100% | 100% | – | 164% | 110%
